In FireProtDB (doi:10.1016/j.bbapap.2007.04.008) one finds denaturant m value and unfolding free energy data, which are given here for one protein.

“And” between values parts separate entries of the source, which are not always exact repeats. Equal values may be shown once.

For this series the following is noted: Brassica napus, pH 7, 27 °C, GdnHCl, phosphate 0.02 M, transition: 3, reversible: Yes, whole UniProt chain shown.

B1: Napin-1A wild type, P24565 (protein)
chain: QPQKCQREFQQEQHLRACQQWIRQQLAGSPFQSGPQEGPWLREQCCNELYQEDQVCVCPTLKQAAKSVRVQGQHGPFQSTRIYQIAKNLPNVCNMKQIGTCPFIAIPFFP
Regarding B1, for the setting “CD”, the denaturant m value is 1.8 kcal/mol/M and 1.2 kcal/mol/M; the unfolding free energy was 5.2 kcal/mol and 5.1 kcal/mol. Moreover, for the setting “Fluorescence”, the denaturant m value is 1.6 kcal/mol/M and 1.3 kcal/mol/M; the unfolding free energy was 5.2 kcal/mol and 5.1 kcal/mol.
